Test results taken from article PMC2614558.

What was measured:
[1] = biological target: cytoplasmic (C-terminal, soluble) domain of the putative zinc transporter CzrB from Thermus thermophilus, His-tag-free (Thermus thermophilus); assay: SEC
[2] = biological target: cytoplasmic (C-terminal, soluble) domain of the putative zinc transporter CzrB from Thermus thermophilus, His-tag-free (Thermus thermophilus); assay: small-angle X-ray scattering
[3] = biological target: cytoplasmic (C-terminal, soluble) domain of the putative zinc transporter CzrB from Thermus thermophilus, His-tag-free (Thermus thermophilus); assay: small-angle X-ray scattering; remark: listed apart in the source

Measured: stoichiometry N

cytoplasmic (C-terminal, soluble) domain of the putative zinc transporter CzrB from Thermus thermophilus, His-tag-free (domain or fragment)
2: all assays above
